Measured values from article PMC10599318, “RNA-sequencing analysis reveals novel genes involved in the different peel color formation in eggplant”.

T1: SmMYB113 (Solanum melongena, UniProt A0A0A0QP33 1-256)
T1 sequence: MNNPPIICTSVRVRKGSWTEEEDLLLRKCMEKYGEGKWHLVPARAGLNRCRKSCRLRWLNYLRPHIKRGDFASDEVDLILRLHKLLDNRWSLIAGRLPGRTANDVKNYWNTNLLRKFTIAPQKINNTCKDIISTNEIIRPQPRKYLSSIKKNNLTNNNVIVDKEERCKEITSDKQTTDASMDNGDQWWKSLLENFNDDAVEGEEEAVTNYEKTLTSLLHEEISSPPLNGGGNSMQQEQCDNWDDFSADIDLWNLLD

B1: SmASAT3 probe (dsDNA)
DNA 1: TTGGTTTTTATGGGCACAGTTGCTACTATGGGTGAATA
DNA 2: TATTCACCCATAGTAGCAACTGTGCCCATAAAAACCAA
B2: SmCytb5 probe (dsDNA)
DNA 1: TCCAAGTTTTTTTCTTTGGTTGATAATTTTATCTAACG
DNA 2: CGTTAGATAAAATTATCAACCAAAGAAAAAAACTTGGA
B3: SmF3'5'M probe (dsDNA)
DNA 1: TTTTTTTTTTGCTTAGACAACTGGCAAGGATTTTACTAA
DNA 2: TTAGTAAAATCCTTGCCAGTTGTCTAAGCAAAAAAAAAA
B4: SmGST probe (dsDNA)
DNA 1: CAGACTTTCCACTCAACCACTGGTTGCTGCTCATCTTCA
DNA 2: TGAAGATGAGCAGCAACCAGTGGTTGAGTGGAAAGTCTG
B5: SmMATE probe (dsDNA)
DNA 1: AACAATTGCTATAACTACAGTTAGGGAATGCAATTACCG
DNA 2: CGGTAATTGCATTCCCTAACTGTAGTTATAGCAATTGTT

These binders were tested against T1, SmMYB113 (assay: EMSA; EMSA per manufacturer's instructions (Thermo Pierce); buffer, salt, pH and temperature not stated; unlabeled competitor 10x, 30x, 100x). Details: protein: recombinant; tags: His (pET32a fusion); label: biotin; blunt.

Binding result, binds:
B1
B2
B3
B4
B5
